Reference: patent US20150361450
Read-outs that look alike come from different tables or passages of the source.

Assays:
[1] = system: KARS2 (mature mitochondrial lysyl-tRNA synthetase, lacking predicted mitochondrial targeting presequence) (Homo sapiens); conditions: CITED apparent Kd, printed as 250+/240; cited from earlier work
[2] = system: preKARS2 (precursor of human mitochondrial lysyl-tRNA synthetase) (Homo sapiens), Q15046-2; conditions: CITED targeting sequence said to completely abolish RNA binding; cited from earlier work
Sequence of preKARS2 (precursor of human mitochondrial lysyl-tRNA synthetase) (Homo sapiens), Q15046-2 (Q15046 other isoform, or with tags, fused parts or gaps): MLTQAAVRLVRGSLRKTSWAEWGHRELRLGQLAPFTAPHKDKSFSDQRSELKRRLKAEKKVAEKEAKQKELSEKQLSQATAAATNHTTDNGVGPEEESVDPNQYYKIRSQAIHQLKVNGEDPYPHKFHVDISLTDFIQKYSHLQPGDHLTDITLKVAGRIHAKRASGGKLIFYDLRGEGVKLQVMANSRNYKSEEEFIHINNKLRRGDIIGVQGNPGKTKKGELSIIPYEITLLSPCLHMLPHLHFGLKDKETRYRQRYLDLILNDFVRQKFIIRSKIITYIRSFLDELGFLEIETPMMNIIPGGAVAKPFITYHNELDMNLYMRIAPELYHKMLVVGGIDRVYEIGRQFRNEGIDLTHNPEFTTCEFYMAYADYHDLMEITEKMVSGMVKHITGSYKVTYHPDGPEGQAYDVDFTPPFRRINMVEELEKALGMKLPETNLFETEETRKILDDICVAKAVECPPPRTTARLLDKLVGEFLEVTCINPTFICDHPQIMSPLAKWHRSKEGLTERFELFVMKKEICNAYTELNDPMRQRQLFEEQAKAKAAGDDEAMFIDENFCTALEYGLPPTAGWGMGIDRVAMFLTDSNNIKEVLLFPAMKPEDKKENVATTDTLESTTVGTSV

[3] = system: preMSK1p (precursor of yeast mitochondrial lysyl-tRNA synthetase) (Saccharomyces cerevisiae); conditions: CITED previously evaluated apparent Kd, printed as 280+/260; cited from earlier work
[4] = system: preKARS2 (precursor of human mitochondrial lysyl-tRNA synthetase) (Homo sapiens), Q15046-2; assay: EMSA; conditions: apparent Kd, error printed as 300+/250 (likely +/-50); 20 mM Tris-HCl pH 7.5, 150 mM NaCl, 10 mM MgCl2, 30 C

For human cytosolic tRNALys3, the Kd [1] is listed as 250 nM and the Kd [2] is listed as 100000 nM.

In the case of tRK1 (yeast tRNALys CUU, T7 transcript), the Kd [3] is given as 280 nM and the Kd [4] is given as 300 nM.
